# B1: 22072 (protein)
# chain: MALPVTALLLPLALLLHAARPQLQLQESGPGLVKPSETLSLTCTVSGDSISSGDYYWGWIRQPPGKGLEWIGHIYYSGVTYYNPSLKSRVTISVDTSRNQFSLKLSSVTAADTAVYYCTREDSSNWRSRGQGTLVTVSSLEGQPKANPTVTLFPPSSEELQANKATLVCLISDFYPGAVTVAWKADGSPVKAGVETTKPSKQSNNKYAASSYLSLTPEQWKSHRSYSCQVTHEGSTVEKTVAPTECSPIKTDVITMDPKDNCSKDANDTLLLQLTNTSAYYMYLLLLLKSVVYFAIITCCLLRRTAFCCNGEKSRAKRSGSGATNFSLLKQAGDVEENPGPTSMDWIWRILFLVGAATGAHSFEVQLLESGGGLIQPGGSLRLSCAASGFTFSSHAMTWVRQAPGKGLEWVSAISGSGDYTHYADSVKGRFTISRDNSKNTVYLQMNSLRAEDSAVYYCAKDEDGGSLLGHRGQGTLVTVSSTRIQNPDPAVYQLRDSKSSDKSVCLFTDFDSQTNVSQSKDSDVYITDKCVLDMRSMDFKSNSAVAWSNKSDFACANAFNNSIIPEDTFFPSPESSCDVKLVEKSFETDTNLNFQNLSVIGFRILLLKVAGFNLLMTLRLWSSRAKRSGSGVKQTLNFDLLKLAGDVESNPGPSRGHMTEYKPTVRLATRDDVPRAVRTLAAAFADYPATRHTVDPDRHIERVTELQELFLTRVGLDIGKVWVADDGAAVAVWTTPESVEAGAVFAEIGPRMAELSGSRLAAQQQMEGLLAPHRPKEPAWFLATVGVSPDHQGKGLGSAVVLPGVEAAERAGVPAFLETSAPRNLPFYERLGFTVTADVEVPEGPRTWCMTRKPGA
# B2: 22154 (protein)
# chain: MALPVTALLLPLALLLHAARPACEVQLLESGGGLIQPGGSLRLSCAASGFTFSSHAMTWVRQAPGKGLEWVSAISGSGDYTHYADSVKGRFTISRDNSKNTVYLQMNSLRAEDSAVYYCAKDEDGGSLLGHRGQGTLVTVSSGTGGGGSGGGGSGGGGSEFSYVLTQPPSVSVAPGQTARITCGGNNIGGKSVHWYQQPPGQAPVVVVYDDSDRPSGIPERFSGSNSGNTATLTISRVEAGDEAVYYCQVWDSSSDHVVFGGGTKLTVLLEGQPKANPTVTLFPPSSEELQANKATLVCLISDFYPGAVTVAWKADGSPVKAGVETTKPSKQSNNKYAASSYLSLTPEQWKSHRSYSCQVTHEGSTVEKTVAPTECSGRADCGFTSESYQQGVLSATILYEILLGKATLYAVLVSALVLMAMVKRKDSRGRAKRSGSGATNFSLLKQAGDVEENPGPTSATMDWIWRILFLVGAATGAHSGPQVQLQESGGGLAQAGGSLRLSCAASGRTFSMGWFRQAPGKEREFVAAITYSGGSPYYASSVRGRFTISRDNAKNTVYLQMNSLKPEDTAVYYCAANPTYGSDWNAENWGQGTQVTVSSGSGGGGSGGGGSGGGGSFEQLQLQESGPGLVKPSETLSLTCTVSGGSISSSSYFWGWIRQPPGKGLEWIGSIYYSGITYYNPSLKSRVTISVDTSKNQFSLKLSSVTAADTAVYYCARHDGAVAGLFDYWGQGTLVTVSSATRASTKGPSVFPLAPSSKSTSGGTAALGCLVKDYFPEPVTVSWNSGALTSGVHTFPAVLQSSGLYSLSSVVTVPSSSLGTQTYICNVNHKPSNTKVDKRVEPKSCIPEDTFFPSPESSCDVKLVEKSFETDTNLNFQNLSVIGFRILLLKVAGFNLLMTLRLWSSRAKRSGSGVKQTLNFDLLKLAGDVESNPGPSRGHMTEYKPTVRLATRDDVPRAVRTLAAAFADYPATRHTVDPDRHIERVTELQELFLTRVGLDIGKVWVADDGAAVAVWTTPESVEAGAVFAEIGPRMAELSGSRLAAQQQMEGLLAPHRPKEPAWFLATVGVSPDHQGKGLGSAVVLPGVEAAERAGVPAFLETSAPRNLPFYERLGFTVTADVEVPEGPRTWCMTRKPGA
# B3: 22133 (protein)
# chain: MALPVTALLLPLALLLHAARPEVQLVESGGGLVQPGGSLRLSCAASGFSFSDFWMSWVRQAPGKGLEWVATISQAGSEKDYVDSVKGRFTISRDNAKKSLYLQMNSLRAEDTAVYYCASGVYSFDYRGQGTLVTVSSGTGGGGSGGGGSGGGGSEFDIQMTQSPSSLSASVGDRVTITCKASDHINNWLAWYQQKPGQAPKLLIYGATTLETGVPSRFSGSGSGTDYTLTISSLQPEDFATYYCQQSWNTPWTFGQGTKLEIKRLEDLKNVFPPEVAVFEPSKAEIAHTQKATLVCLATGFYPDHVELSWWVNGKEVHSGVCTDPQPLKEQPALNDSRYCLSSRLRVSATFWQNPRNHFRCQVQFYGLSENDEWTQDRAKPVTQIVSAEAWGRADCGITSASYHQGVLSATILYEILLGKATLYAVLVSALVLMAMVKRKDSRGRAKRSGSGATNFSLLKQAGDVEENPGPTSATMDWIWRILFLVGAATGAHSGPQVQLQESGGGLAQAGGSLRLSCAASGRTFSMGWFRQAPGKEREFVAAITYSGGSPYYASSVRGRFTISRDNAKNTVYLQMNSLKPEDTAVYYCAANPTYGSDWNAENWGQGTQVTVSSGSGGGGSGGGGSGGGGSFEQVQLQQPGAELVKPGASVKMSCKASGYAFSSYWINWMKQKPGQGLEWIGQIYPGDGDTNYNGKFKGRATLTADTSSSTAYMQLSSLTSEDSAVYFCARSITTVVGCAMDYWGQGTSVTVSSTRIQNPDPAVYQLRDSKSSDKSVCLFTDFDSQTNVSQSKDSDVYITDKCVLDMRSMDFKSNSAVAWSNKSDFACANAFNNSIIPEDTFFPSSDVPCDVKLVEKSFETDTNLNFQNLSVIGFRILLLKVAGFNLLMTLRLWSSRAKRSGSGVKQTLNFDLLKLAGDVESNPGPSRGHMTEYKPTVRLATRDDVPRAVRTLAAAFADYPATRHTVDPDRHIERVTELQELFLTRVGLDIGKVWVADDGAAVAVWTTPESVEAGAVFAEIGPRMAELSGSRLAAQQQMEGLLAPHRPKEPAWFLATVGVSPDHQGKGLGSAVVLPGVEAAERAGVPAFLETSAPRNLPFYERLGFTVTADVEVPEGPRTWCMTRKPGA
# B4: 22112 (protein)
# chain: MALPVTALLLPLALLLHAARPDIQMTQSPSSLSASVGDRVTITCKASDHINNWLAWYQQKPGQAPKLLIYGATTLETGVPSRFSGSGSGTDYTLTISSLQPEDFATYYCQQSWNTPWTFGQGTKLEIKRLEDLKNVFPPEVAVFEPSEAEISHTQKATLVCLATGFYPDHVELSWWVNGKEVHSGVCTDPQPLKEQPALNDSRYCLSSRLRVSATFWQNPRNHFRCQVQFYGLSENDEWTQDRAKPVTQIVSAEAWGRADCGFTSESYQQGVLSATILYEILLGKATLYAVLVSALVLMAMVKRKDSRGRAKRSGSGATNFSLLKQAGDVEENPGPTSATMDWIWRILFLVGAATGAHSGPEVQLVESGGGLVQAGGSLRLSCAASGRTFTMGWFRQAPGKEREFVAAISLSPTLAYYADSVKGRFTISRDNAKNTVVLQMNSLKPEDTALYYCAADRKSVMSIRPDYWGQGTQVTVSSGSGGGGSGGGGSGGGGSFEQVQLQQPGAELVKPGASVKMSCKASGYAFSSYWINWMKQKPGQGLEWIGQIYPGDGDTNYNGKFKGRATLTADTSSSTAYMQLSSLTSEDSAVYFCARSITTVVGCAMDYWGQGTSVTVSSTRIQNPDPAVYQLRDSKSSDKSVCLFTDFDSQTNVSQSKDSDVYITDKCVLDMRSMDFKSNSAVAWSNKSDFACANAFNNSIIPEDTFFPSPESSCDVKLVEKSFETDTNLNFQNLSVIGFRILLLKVAGFNLLMTLRLWSSRAKRSGSGVKQTLNFDLLKLAGDVESNPGPSRGHMTEYKPTVRLATRDDVPRAVRTLAAAFADYPATRHTVDPDRHIERVTELQELFLTRVGLDIGKVWVADDGAAVAVWTTPESVEAGAVFAEIGPRMAELSGSRLAAQQQMEGLLAPHRPKEPAWFLATVGVSPDHQGKGLGSAVVLPGVEAAERAGVPAFLETSAPRNLPFYERLGFTVTADVEVPEGPRTWCMTRKPGA
# Assays:
# Assay type in all cases: cell-based
# Nalm6 cells = assay: JNG assay, co-culture with Nalm6 cells; details: co-culture with Nalm6
# In short: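 GFP expression induced through the NFAT pathway was monitored by FACS once SAR-bearing Jurkat reporters had been cultured with target cells at an approximate 1:2 ratio for 4 to 18 hours; parental reporter cells served as the baseline.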
# L363 cells = assay: JNG assay, co-culture with L363 cells; details: co-culture with L363
# In short: (§1)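 Jurkat-NFAT-GFP (JNG) cells stably expressing SAR constructs via lentiviral transduction and puromycin/blasticidin selection were cocultured with target cells at E:T ~1:2 for ~4–18 h. NFAT-driven GFP was measured by FACS versus parental JNG cells; scores +/- to 5+ denote ~5–50% GFP-positive cells.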
# RAJI cells = assay: JNG assay, co-culture with RAJI cells; details: JNG cells expressing construct, co-culture with Raji
# In short: as §1
# RAJI-CD19-KO cells = assay: JNG assay, co-culture with RAJI-CD19-KO cells; details: co-culture with Raji-CD19-KO
# Method: Cellular supernatant is collected and assayed for the induction of cytokines (e.g., IL2).
# JNG (Jurkat cells expressing EGFP under an NFAT promoter) were infected with lentiviral vectors encoding different single chain and multi-chain SARs by spinfection in the presence of 8 µg/ml of Polybrene® (Sigma, Catalog no. H9268). The Jurkat-NFAT-GFP cells are engineered in such a way that the IL-2 promoter, which carries NFAT binding sites, is cloned upstream of the GFP gene. These cells have been used to study signaling via TCR and CAR. The different SARs were stably expressed in Jurkat NFAT-GFP cells by lentiviral mediated gene transfer, followed by selection with puromycin or blasticidin. No drug selection was used in case the construct lacked an antibiotic resistance gene. The SAR-expressing Jurkat-NFAT-GFP cells were cocultured with the target cells at E:T ratio of approximately 1:2 for approximately 4 hours to 18 hours. When the interaction between SIRs and their target antigen results in activation of the NFAT pathway, GFP expression is induced. […] GFP expression was monitored by FACS analysis. The Jurkat-NFAT-GFP (parental) cells were used as control. The structure of different constructs can be determined based on their names. […] The sequence of the other constructs in the table can be similarly determined from their names and by referring to the different Tables of this disclosure that provide the names and SEQ ID NO of the different modules. Alternatively, the composition and modular architecture of the different SAR constructs can be determined from their sequences by bioinformatics tools, including using nucleic acid and amino acids homology searches. A SAR is considered positive in the assay in case the SAR expressing Jurkat-NFAT-GFP cells show greater % GFP positive cells when cultured with the target cell line as compared to parental Jurkat-NFAT-GFP cells. […] In general, the number +/-, +, 2+, 3+, 4+, 5+ refer to approximately 5%, 10%, 20%, 30%, 40% and 50% GFP positive cells. The % of GFP induction in the above assay is dependent not only the relative strength of the SAR but also, among other factors, on the relative level of expression of the SAR in the JNG cells and the relative level of expression of the target antigen in the target cell line. To control for the difference in gene transduction efficiency of the different SAR constructs, the experiment was conducted with JNG cells transduced with SAR constructs co-expressing a drug resistance gene (e.g., puromycin or PAC) followed by drug selection to generate a stable population of SAR-expressing cells. It is to be noted that the drug resistance gene (e.g., PAC) in the SAR constructs is optional and in vivo studies were conducted with SAR constructs lacking the PAC gene.
Molecule,NFAT-GFP ASSAY: Nalm6 (Nalm6 cells),NFAT-GFP ASSAY: L363 (L363 cells),NFAT-GFP ASSAY: Raji (RAJI cells),NFAT-GFP ASSAY: Raji-CD19-KO (RAJI-CD19-KO cells)
B1,"+/- (refer to approximately 5%, 10%, 20%, 30%, 40% and 50% GFP positive cells)","+ (refer to approximately 5%, 10%, 20%, 30%, 40% and 50% GFP positive cells)","+ (refer to approximately 5%, 10%, 20%, 30%, 40% and 50% GFP positive cells)",–
B2,"+ (refer to approximately 5%, 10%, 20%, 30%, 40% and 50% GFP positive cells)","2+ (refer to approximately 5%, 10%, 20%, 30%, 40% and 50% GFP positive cells)","4+ (refer to approximately 5%, 10%, 20%, 30%, 40% and 50% GFP positive cells)",–
B3,–,–,–,"5+ (refer to approximately 5%, 10%, 20%, 30%, 40% and 50% GFP positive cells)"
B4,–,–,–,"5+ (refer to approximately 5%, 10%, 20%, 30%, 40% and 50% GFP positive cells)"
